Assay results as given in patent US20250163168A1 (Pfizer, published 2025).
Square brackets hold non-standard residues; d marks the D form. Ends that are not written are not given here. * marks the point of attachment. Aib = CC(C)(N)C(=O)O; BrAc = O=C(CBr)*

Key:
human GLP1R = human GLP1R (human, UniProt P43220 24-463); assay: cell-based or functional assay
[1] = molecular target: T1, Human GIPR ECD (GIPR extra cellular domain) (human); assay: SPR (Biacore 8K, 37 C); antibody captured on anti-human IgG, human GIPR ECD as analyte; 1:1 model
T1 construct: The published benchmark structures (6dkj, 4hj0) used their own ECD constructs
T1 chain: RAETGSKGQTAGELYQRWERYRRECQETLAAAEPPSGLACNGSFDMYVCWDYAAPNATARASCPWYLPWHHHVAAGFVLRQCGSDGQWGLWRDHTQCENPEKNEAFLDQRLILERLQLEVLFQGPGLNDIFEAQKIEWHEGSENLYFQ

[2] = molecular target: T2, human GIPR (hGIPR), full length (human, UniProt P48546 22-466); assay: cell-based or functional assay
T2 sequence: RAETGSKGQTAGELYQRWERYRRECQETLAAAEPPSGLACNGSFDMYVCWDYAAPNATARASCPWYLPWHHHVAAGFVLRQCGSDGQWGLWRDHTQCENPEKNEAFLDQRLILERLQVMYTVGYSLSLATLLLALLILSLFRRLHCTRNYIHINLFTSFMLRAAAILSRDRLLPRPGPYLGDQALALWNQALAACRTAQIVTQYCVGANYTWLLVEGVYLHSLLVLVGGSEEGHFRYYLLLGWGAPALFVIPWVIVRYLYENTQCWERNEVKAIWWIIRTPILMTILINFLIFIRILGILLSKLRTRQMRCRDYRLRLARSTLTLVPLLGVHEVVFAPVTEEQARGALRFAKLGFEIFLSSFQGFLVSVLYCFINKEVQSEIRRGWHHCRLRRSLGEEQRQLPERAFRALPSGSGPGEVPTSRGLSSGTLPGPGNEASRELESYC

Chain of human GLP1R (P43220 24-463): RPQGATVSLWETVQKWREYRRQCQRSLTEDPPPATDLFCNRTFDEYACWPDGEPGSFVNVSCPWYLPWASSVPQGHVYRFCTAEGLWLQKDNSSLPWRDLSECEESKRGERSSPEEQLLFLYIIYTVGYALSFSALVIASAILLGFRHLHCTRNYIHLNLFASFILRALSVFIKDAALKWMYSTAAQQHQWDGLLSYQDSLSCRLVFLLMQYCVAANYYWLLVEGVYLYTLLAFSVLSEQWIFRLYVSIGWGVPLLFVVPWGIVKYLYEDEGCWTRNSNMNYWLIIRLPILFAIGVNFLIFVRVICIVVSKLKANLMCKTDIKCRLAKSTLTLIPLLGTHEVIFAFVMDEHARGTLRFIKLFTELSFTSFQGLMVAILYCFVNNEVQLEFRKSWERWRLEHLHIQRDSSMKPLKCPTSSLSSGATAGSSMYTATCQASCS

Binder: H-H[Aib]EGTFTSDVSSYLEEQAAKEFIAWLVKGGGGGGGSGGGGSGGGGSK(BrAc) (not fully specified (C-terminus)) [SEQ ID NO 153 (Benchmark): GLP1(7-37) [Aib8; Glu22; Gly36] with GGGGS(x3)-K(BrAc) linker]
- cAMP assay, GLP1R agonist mode, EC50 (pM) (human GLP1R): 15 pM
- cAMP assay, GLP1R agonist mode, Emax (%) (human GLP1R): 109%

Binder: H-H[Aib]EGTFTSDYSSYLE[Aib]QAAKEFIAWLVKGRGGGGGSGGGGSGGGGSK(BrAc) (not fully specified (C-terminus)) [SEQ ID NO 152: GLP1(7-37) [Aib8; Tyr16; Aib22] with GGGGS(x3)-K(BrAc) linker]
- cAMP assay, GLP1R agonist mode, EC50 (pM) (human GLP1R): 2.1 pM
- cAMP assay, GLP1R agonist mode, Emax (%) (human GLP1R): 107%

B1: anti-GIPR antibody GIPR-2767 (antibody, human IgG1, kappa)
heavy: EVQLVESGGGLVKPGGSLRLSCAASGFPFSSAWMSWVRQAPGKGLEWVGRIKSKADAGTTDYGAPVKGRFTISRDDSKNTLYLQMNSLKTEDTAVYYCTTEDIVGVPFKGYYQYMDAWGKGTTVTVSSASTKGPSVFPLAPSSKSTSGGTAALGCLVKDYFPEPVTVSWNSGALTSGVHTFPAVLQSSGLYSLSSVVTVPSSSLGTQTYICNVNHKPSNTKVDKKVEPKSCDKTHTCPPCPAPEAAGAPSVFLFPPKPKDTLMISRTPEVTCVVVDVSHEDPEVKFNWYVDGVEVHNAKTKPREEQYNSTYRVVSVLTVLHQDWLNGKEYKCKVSNKALPAPIEKTISKAKGQPREPQVYTLPPSREEMTKNQVSLTCLVKGFYPSDIAVEWESNGQPENNYKTTPPVLDSDGSFFLYSKLTVDKSRWQQGNVFSCSVMHEALHNHYTQKSLSLSPGK
light: not shown
notes: also called GIPR-27676; GIPR-2676
- Kd [1]: 1.91 nM
- koff [1]: 0.0013 s⁻¹
- kon [1]: 684000 M⁻¹ s⁻¹
- Human GIPR-CHO cAMP Antagonist Activity IC50 [2]: 28 nM

Binder: H[Aib]EGTFTSDYSSYLEEQAAKEFIAWLVKGRGGGGGSGGGGSGGGGSK(BrAc) (not fully specified (C-terminus)) [SEQ ID NO 151: GLP1(7-37) [Aib8; Tyr16; Glu22] with GGGGS(x3)-K(BrAc) linker]
- cAMP assay, GLP1R agonist mode, EC50 (pM) (human GLP1R): 3.5 pM
- cAMP assay, GLP1R agonist mode, Emax (%) (human GLP1R): 109%

Binder: H-H[Aib]EGTFTSDVSSYLE[Aib]QAAKEFIAWLVKGRGGGGGSGGGGSGGGGSK(BrAc) (not fully specified (C-terminus)) [SEQ ID NO 150: GLP1(7-37) [Aib8; Aib22] with GGGGS(x3)-K(BrAc) linker]
- cAMP assay, GLP1R agonist mode, Emax (%) (human GLP1R): 104%
